Assay: melting temperature; UV melt of duplexes

Row | Substance | Tm (sodium 0.07 M, strand 2 µM) [°C] | Tm (sodium 0.12 M, strand 2 µM) [°C] | Tm (sodium 0.22 M, strand 2 µM) [°C] | Tm (sodium 0.62 M, strand 2 µM) [°C] | Tm (sodium 1.02 M, strand 2 µM) [°C] | further results
1 | GTTCTATACTCTTGAAGTTGATTAC+GTAATCAACTTCAAGAGTATAGAAC (((((((((((((((((((((((((+))))))))))))))))))))))))) | 52.7 | 56.1 | 60.6 | 66.1 | 67.7 | –
2 | ATAAAAATGAATTCATTTTTAT+ATAAAAATGAATTCATTTTTAT ((((((((((((((((((((((+)))))))))))))))))))))) | – | – | – | – | – | Tm (sodium 0.12 M, strand 7 µM): 52.8 °C
3 | ATTGATATCCTTTTCTATTCATCTTTCATT+AATGAAAGATGAATAGAAAAGGATATCAAT ((((((((((((((((((((((((((((((+)))))))))))))))))))))))))))))) | 53.5 | 58.3 | 62.3 | 68.6 | 70.4 | –
4 | CGCGCGCGACTGACTG+CAGTCAGTCGCGCGCG ((((((((((((((((+)))))))))))))))) | – | – | – | – | – | Tm (sodium 0.12 M, strand 44 µM): 69.4 °C
5 | CGCGCCACGTGTGATCTACAGCCGTTCGGC+GCCGAACGGCTGTAGATCACACGTGGCGCG ((((((((((((((((((((((((((((((+)))))))))))))))))))))))))))))) | 72.7 | 76.3 | 79.5 | 83.4 | 84.5 | –
6 | CGCAAAAAAAAAACGC+GCGTTTTTTTTTTGCG ((((((((((((((((+)))))))))))))))) | – | – | – | – | – | Tm (sodium 0.1 M, strand 4 µM): 54.1 °C
7 | AAAAAAAAGAATTCTTTTTTTT+AAAAAAAAGAATTCTTTTTTTT ((((((((((((((((((((((+)))))))))))))))))))))) | – | – | – | – | – | Tm (sodium 0.12 M, strand 6 µM): 49.9 °C
8 | AGCAAGTCGAGCAGGGCCTACGTTT+AAACGTAGGCCCTGCTCGACTTGCT (((((((((((((((((((((((((+))))))))))))))))))))))))) | 68.3 | 72.6 | 76.3 | 80 | 81.5 | –
9 | AACGCGCGTGAATTCTGGCCGCAA+TTGCGGCCAGAATTCACGCGCGTT ((((((((((((((((((((((((+)))))))))))))))))))))))) | – | – | – | – | – | Tm (sodium 0.12 M, strand 6 µM): 75.8 °C
10 | CAACTTGATATTAATA+TATTAATATCAAGTTG ((((((((((((((((+)))))))))))))))) | – | – | – | – | – | Tm (sodium 1 M, strand 18 µM): 52 °C
11 | ATATATATAGCTTTTTTTTT+AAAAAAAAAGCTATATATAT ((((((((((((((((((((+)))))))))))))))))))) | – | – | – | – | – | Tm (sodium 0.12 M, strand 6 µM): 44.3 °C
12 | AGTCTGGTCTGGATCTGAGAACTTCAGGCT+AGCCTGAAGTTCTCAGATCCAGACCAGACT ((((((((((((((((((((((((((((((+)))))))))))))))))))))))))))))) | 66.3 | 70.4 | 74.5 | 78.8 | 80.6 | –
13 | GTCCACGCCCGGTGCGACGG+CCGTCGCACCGGGCGTGGAC ((((((((((((((((((((+)))))))))))))))))))) | 70.9 | 73.9 | 77.3 | 79.8 | 81.1 | –
14 | ACAGCGAATGGACCTACGTGGCCTT+AAGGCCACGTAGGTCCATTCGCTGT (((((((((((((((((((((((((+))))))))))))))))))))))))) | 68.1 | 72.1 | 76 | 79.4 | 81 | –
15 | GTTATTCCGCAGTCCGATGGCAGCAGGCTC+GAGCCTGCTGCCATCGGACTGCGGAATAAC ((((((((((((((((((((((((((((((+)))))))))))))))))))))))))))))) | 70.6 | 74.9 | 78.1 | 82.4 | 84.1 | –
16 | AAGGCGAGTCAGGCTCAGTG+CACTGAGCCTGACTCGCCTT ((((((((((((((((((((+)))))))))))))))))))) | 64.5 | 67.7 | 71.4 | 75.1 | 76.3 | –
17 | CCACTATACCATCTATGTAC+GTACATAGATGGTATAGTGG ((((((((((((((((((((+)))))))))))))))))))) | 51.1 | 54.6 | 58.4 | 62.2 | 64.4 | –
18 | AATATATGATCATCGAT+ATCGATGATCATATATT (((((((((((((((((+))))))))))))))))) | – | – | – | – | – | Tm (sodium 0.12 M, strand 3 µM): 50 °C
19 | AACGCGCGTAGAGTAATTATAA+TTATAATTACTCTACGCGCGTT ((((((((((((((((((((((+)))))))))))))))))))))) | – | – | – | – | – | Tm (sodium 0.12 M, strand 6 µM): 65 °C
20 | ATAACTTTACGTGTGTGACCTATTA+TAATAGGTCACACACGTAAAGTTAT (((((((((((((((((((((((((+))))))))))))))))))))))))) | 56.6 | 60.7 | 64.7 | 69.6 | 71.8 | –
21 | AACCTGCAACATGGAGTTTTTGTCTCATGC+GCATGAGACAAAAACTCCATGTTGCAGGTT ((((((((((((((((((((((((((((((+)))))))))))))))))))))))))))))) | 64.5 | 68.3 | 72.5 | 77.7 | 78.7 | –
22 | GACGACGACGACGACGACGACGACGACGAC+GTCGTCGTCGTCGTCGTCGTCGTCGTCGTC ((((((((((((((((((((((((((((((+)))))))))))))))))))))))))))))) | – | – | – | – | – | Tm (sodium 0.15 M, strand 0.0001 M): 83 °C
23 | AATATATGAATTCTAATTAA+TTAATTAGAATTCATATATT ((((((((((((((((((((+)))))))))))))))))))) | – | – | – | – | – | Tm (sodium 0.12 M, strand 6 µM): 44.7 °C
24 | GCTAAAAAGAGAGAGAGATCG+CGATCTCTCTCTCTTTTTAGC (((((((((((((((((((((+))))))))))))))))))))) | – | – | – | – | – | Tm (sodium 1 M, strand 3 µM): 69 °C
25 | GATATAGCAAAATTCTAAGTTAATA+TATTAACTTAGAATTTTGCTATATC (((((((((((((((((((((((((+))))))))))))))))))))))))) | 49.1 | 53.5 | 57.7 | 63.3 | 66.1 | –
26 | GCCGAGGTCCATGTCGTACGC+GCGTACGACATGGACCTCGGC (((((((((((((((((((((+))))))))))))))))))))) | – | – | – | – | – | Tm (sodium 0.1 M, strand 4 µM): 69.5 °C
27 | ATATATATAGCTATATATAT+ATATATATAGCTATATATAT ((((((((((((((((((((+)))))))))))))))))))) | – | – | – | – | – | Tm (sodium 0.12 M, strand 5 µM): 44.8 °C
28 | TTCAAGTTAAACATTCTATC+GATAGAATGTTTAACTTGAA ((((((((((((((((((((+)))))))))))))))))))) | 45.7 | 49.5 | 53.9 | 59.4 | 61.5 | –

Source: the array DNA melting data of Ke et al.
